The source of these data is patent US20240084286A1, “METHODS AND COMPOSITIONS FOR INCREASING THE CONCENTRATION OF CELL FREE DNA” (The Broad Institute, Inc., priority 2021, published 2024).

The test system of one assay is DNase I. Briefly: Fluorophore-quencher dsDNA nuclease protection fluorescence assay. It is filed as biochemical. An excerpt:
FIGS. 8A-8B present the protection of dsDNA from nuclease digestion by various dsDNA binders. FIG. 8A presents a fluorescence assay measuring nuclease activity in digestion of dsDNA, which is diminished in presence of dsDNA binders.
FIGS. 28A-28E: FIG. 28A presents an experimental workflow for testing the effect of a DNA binding agent on clearance and degradation of cfDNA. A DNA-binding monoclonal antibody (mAb) is combined with recombinant nucleosome core particles (NCPs) consisting of a human histone octamer complexed with 20 ng of the Widom601 double-stranded DNA (dsDNA) oligonucleotide. […] Levels of Widom601 were quantified via Taqman qPCR. […]
The ability of DBP's—both known proteins and novel ones generated above—to protect dsDNA from nuclease digestion using a previously-established plate-based fluorescence assay was evaluated Known DBP's that can be tested included anti-dsDNA antibodies (some commercially available, e.g. Abcam ab27156),^20,21 members of the protamine family of DBP's, 22 and a family of small DNA-binding archaeal proteins including Sso7d.^23-25 A commercially available dsDNA probe conjugated to a HEX fluorophore and a quencher was incubated with recombinant DNase 1 and DNase 1L3 (the predominant nucleases in circulation). […]

In the next assay the test system is DNase. Briefly: Nuclease digestion time-series / electropherogram of dsDNA. It is filed as biochemical. Conditions: dsDNA oligonucleotide.

Entries after “also recorded” stand apart in the source; their conditions may differ.

On to protamine sulfate [reference compound], for which the “protection of dsDNA from nuclease digestion” value in the assay with DNase I is recorded as “protect it from digestion by nucleases”.

B1: Sso7d: Small archaeal histone-like DNA-binding protein from Sulfolobus solfataricus, SEQ ID NO: 3 (protein, listed as Saccharolobus solfataricus)
chain: MATVKFKYKGEEKEVDISKIKKVWRVGKMISFTYDEGGGKTGRGAVSEKDAPKELLQMLEKQKK
For B1, in the assay with DNase, the “protection of dsDNA, digestion time-series” value is “dsDNA protection”. In addition, the “protection of dsDNA from nuclease digestion” value in the assay with DNase I was “protect it from digestion by nucleases; also recorded: protect dsDNA from DNase I digestion”.
